Measured values taken from US20220175781A1, “CD40L COMPOSITIONS AND METHODS FOR TUNABLE REGULATION” (Obsidian Therapeutics, Inc., priority 2019, published 2022).

What was measured:
[1] = test system: T cells (CD4 and CD8 positive); test: Bazedoxifene dose response, CD40L MFI in CD4 and CD8 positive T cells (day 4, freeze/thaw, restimulation); format: cell-based
Procedure: Dose response with Bazedoxifene in T cells were conducted for OT-001966, OT-001967, OT-001666. Expression of CD40L was measured at (a) day 4 after transduction, (b) after freezing and thawing the cells or (c) after freezing and thawing the cells followed by restimulation with CD3/CD28 beads. The CD40L MFI (median fluorescence intensity) within CD4 and CD8 positive subpopulations is shown in Table 34 and Table 35 respectively.

[2] = test system: HEK293T cells; test: Linker length, ER regulated CD40L surface expression, transfected HEK293T cells; format: cell-based, human; settings: 1 μM Bazedoxifene 24 hours
Procedure: To explore the effect of linker length in the DD mediated regulation of CD40L, constructs with varying linker lengths were generated. OT-001966, OT-001965, OT-001967, OT-001666 constructs were generated and are presented here in decreasing linker length order. HEK293T cells were transiently transfected with these constructs and treated with 1 μM Bazedoxifene for 24 hours. Median fluorescence intensity, an indicator of surface expression of CD40L, was analyzed by flow cytometry.

[3] = test system: T cells (CD4+ and CD8+); test: Regulation of CD40L in T cells by different drug responsive domains; format: cell-based
[4] = test system: Jurkat cells; test: Linker length, ER regulated CD40L, % CD40L positive Jurkat cells; format: cell-based
Procedure: Jurkat cells were lentivirally transduced and 24 hours after transduction were treated with DMSO or 1 μM Bazedoxifene for another 24 hours and analyzed by flow cytometry for surface expression of CD40L. […] In Table 33, SR indicates stabilization ratio.

B1: OT-001966: ER regulated CD40L construct, longest linker (protein)
chain: MSLALSLTADQMVSALLDAEPPILYSEYDPTRPFSEASMMGLLTNLADRELVHMINWAKRVPGFVDLTLHDQVHLLECAWMEILMIGLVWRSMEHPGKLLFAPNLLLDRDQGKCVEGGVEIFDMLLATSSRFRMMNLQGEEFVCLKSIILLNSGVYTFLSSTLKSLEEKDHIHRVLDKITDTLIHLMAKAGLTLQQQHQRLAQLLLILSHIRHMSNKRMEHLYSMKCKNVVPLSDLLLEMLDAHRLGGSGGGSGGGSGMIETYNQTSPRSAATGLPISMKIFMYLLTVFLITQMIGSALFAVYLHRRLDKIEDERNLHEDFVFMKTIQRCNTGERSLSLLNCEEIKSQFEGFVKDIMLNKEETKKENSFEMQKGDQNPQIAAHVISEASSKTTSVLQWAEKGYYTMSNNLVTLENGKQLTVKRQGLYYIYAQVTFCSNREASSQAPFIASLCLKSPGRFERILLRAANTHSSAKPCGQQSIHLGGVFELQPGASVFVNVTDPSQVSHGTGFTSFGLLKL
CD40L expression (MFI) ([1]; CD4+ cells, Day 4, Bazedoxifene 0.01 nM): 415
CD40L expression (MFI) ([1]; CD4+ cells, Day 4, Bazedoxifene 0.1 nM): 499
CD40L expression (MFI) ([1]; CD4+ cells, Day 4, Bazedoxifene 1 nM): 545
CD40L expression (MFI) ([1]; CD4+ cells, Day 4, Bazedoxifene 10 nM): 616
CD40L expression (MFI) ([1]; CD4+ cells, Day 4, Bazedoxifene 100 nM): 1028
CD40L expression (MFI) ([1]; CD4+ cells, Day 4, Bazedoxifene 1000 nM): 1551
CD40L expression (MFI) ([1]; CD4+ cells, Day 4, Bazedoxifene 10000 nM): 1095
CD40L expression (MFI) ([1]; CD4+ cells, Post Thaw, Bazedoxifene 0.01 nM): 183
CD40L expression (MFI) ([1]; CD4+ cells, Post Thaw, Bazedoxifene 0.1 nM): 185
CD40L expression (MFI) ([1]; CD4+ cells, Post Thaw, Bazedoxifene 1 nM): 193
CD40L expression (MFI) ([1]; CD4+ cells, Post Thaw, Bazedoxifene 10 nM): 213
CD40L expression (MFI) ([1]; CD4+ cells, Post Thaw, Bazedoxifene 100 nM): 258
CD40L expression (MFI) ([1]; CD4+ cells, Post Thaw, Bazedoxifene 1000 nM): 292
CD40L expression (MFI) ([1]; CD4+ cells, Post Thaw, Bazedoxifene 10000 nM): 577
CD40L expression (MFI) ([1]; CD4+ cells, Restim, Bazedoxifene 0.01 nM): 340
CD40L expression (MFI) ([1]; CD4+ cells, Restim, Bazedoxifene 0.1 nM): 340
CD40L expression (MFI) ([1]; CD4+ cells, Restim, Bazedoxifene 1 nM): 364
CD40L expression (MFI) ([1]; CD4+ cells, Restim, Bazedoxifene 10 nM): 472
CD40L expression (MFI) ([1]; CD4+ cells, Restim, Bazedoxifene 100 nM): 561
CD40L expression (MFI) ([1]; CD4+ cells, Restim, Bazedoxifene 1000 nM): 741
CD40L expression (MFI) ([1]; CD4+ cells, Restim, Bazedoxifene 10000 nM): 447
CD40L expression (MFI) ([1]; CD8+ cells, Day 4, Bazedoxifene 0.01 nM): 168
CD40L expression (MFI) ([1]; CD8+ cells, Day 4, Bazedoxifene 0.1 nM): 176
CD40L expression (MFI) ([1]; CD8+ cells, Day 4, Bazedoxifene 1 nM): 190
CD40L expression (MFI) ([1]; CD8+ cells, Day 4, Bazedoxifene 10 nM): 212
CD40L expression (MFI) ([1]; CD8+ cells, Day 4, Bazedoxifene 100 nM): 442
CD40L expression (MFI) ([1]; CD8+ cells, Day 4, Bazedoxifene 1000 nM): 669
CD40L expression (MFI) ([1]; CD8+ cells, Day 4, Bazedoxifene 10000 nM): 438
CD40L expression (MFI) ([1]; CD8+ cells, Post Thaw, Bazedoxifene 0.01 nM): 113
CD40L expression (MFI) ([1]; CD8+ cells, Post Thaw, Bazedoxifene 0.1 nM): 117
CD40L expression (MFI) ([1]; CD8+ cells, Post Thaw, Bazedoxifene 1 nM): 121
CD40L expression (MFI) ([1]; CD8+ cells, Post Thaw, Bazedoxifene 10 nM): 148
CD40L expression (MFI) ([1]; CD8+ cells, Post Thaw, Bazedoxifene 100 nM): 204
CD40L expression (MFI) ([1]; CD8+ cells, Post Thaw, Bazedoxifene 1000 nM): 230
CD40L expression (MFI) ([1]; CD8+ cells, Post Thaw, Bazedoxifene 10000 nM): 375
CD40L expression (MFI) ([1]; CD8+ cells, Restim, Bazedoxifene 0.01 nM): 340
CD40L expression (MFI) ([1]; CD8+ cells, Restim, Bazedoxifene 0.1 nM): 340
CD40L expression (MFI) ([1]; CD8+ cells, Restim, Bazedoxifene 1 nM): 364
CD40L expression (MFI) ([1]; CD8+ cells, Restim, Bazedoxifene 10 nM): 472
CD40L expression (MFI) ([1]; CD8+ cells, Restim, Bazedoxifene 100 nM): 561
CD40L expression (MFI) ([1]; CD8+ cells, Restim, Bazedoxifene 1000 nM): 741
CD40L expression (MFI) ([1]; CD8+ cells, Restim, Bazedoxifene 10000 nM): 447
CD40L expression, ranking of constructs ([1]; CD8 positive cells, freeze/thaw followed by restimulation with CD3/CD28 beads): highest ER regulated CD40L expression
percentage of cells with high CD40L surface expression, ranking of constructs [2]: highest percentage of cells with high CD40L surface expression
CD40L positive ([3]; All Cells, 1 uM Baz): 58.1%
MFI ([3]; All Cells, 1 uM Baz): 490
CD40L positive ([3]; All Cells, DMSO): 14%
MFI ([3]; All Cells, DMSO): 174
CD40L positive ([3]; CD4+, 1 uM Baz): 62.8%
MFI ([3]; CD4+, 1 uM Baz): 543
CD40L positive ([3]; CD4+, DMSO): 17%
MFI ([3]; CD4+, DMSO): 197
CD40L positive ([3]; CD8+, 1 uM Baz): 42.3%
MFI ([3]; CD8+, 1 uM Baz): 339
CD40L positive ([3]; CD8+, DMSO): 2.2%
MFI ([3]; CD8+, DMSO): 95.6
Percent of Jurkat cells expressing CD40L ([4]; 1 μM Bazedoxifene): 46%
SR ([4]; 1 μM Bazedoxifene versus DMSO, % CD40L positive Jurkat cells): 15.3
Percent of Jurkat cells expressing CD40L ([4]; DMSO): 3%
percentage of cells with high CD40L surface expression, ranking of constructs ([4]; Jurkat cells, 1 μM Bazedoxifene 24 hours): highest percentage of cells with high CD40L surface expression
